Measured values published in article PMC4191399.
Positions count from the first letter of the chain named.

Columns and labels:
[1] = target: T1, RIG-I Q784A/K788A/R791A Q784A;K788A;R791A (Homo sapiens) (UniProt O95786); assay: fluorescence polarization; details: internal 6-carboxyfluorescein in backbone between U12 and C13 (central tetraloop bases); 25 mM MOPS pH 7.4, 150 mM KCl, 2 mM DTT, 2 mM MgCl2, 0.01% Triton X-100, 1 nM RNA, room temperature, 1 h
T1 sequence: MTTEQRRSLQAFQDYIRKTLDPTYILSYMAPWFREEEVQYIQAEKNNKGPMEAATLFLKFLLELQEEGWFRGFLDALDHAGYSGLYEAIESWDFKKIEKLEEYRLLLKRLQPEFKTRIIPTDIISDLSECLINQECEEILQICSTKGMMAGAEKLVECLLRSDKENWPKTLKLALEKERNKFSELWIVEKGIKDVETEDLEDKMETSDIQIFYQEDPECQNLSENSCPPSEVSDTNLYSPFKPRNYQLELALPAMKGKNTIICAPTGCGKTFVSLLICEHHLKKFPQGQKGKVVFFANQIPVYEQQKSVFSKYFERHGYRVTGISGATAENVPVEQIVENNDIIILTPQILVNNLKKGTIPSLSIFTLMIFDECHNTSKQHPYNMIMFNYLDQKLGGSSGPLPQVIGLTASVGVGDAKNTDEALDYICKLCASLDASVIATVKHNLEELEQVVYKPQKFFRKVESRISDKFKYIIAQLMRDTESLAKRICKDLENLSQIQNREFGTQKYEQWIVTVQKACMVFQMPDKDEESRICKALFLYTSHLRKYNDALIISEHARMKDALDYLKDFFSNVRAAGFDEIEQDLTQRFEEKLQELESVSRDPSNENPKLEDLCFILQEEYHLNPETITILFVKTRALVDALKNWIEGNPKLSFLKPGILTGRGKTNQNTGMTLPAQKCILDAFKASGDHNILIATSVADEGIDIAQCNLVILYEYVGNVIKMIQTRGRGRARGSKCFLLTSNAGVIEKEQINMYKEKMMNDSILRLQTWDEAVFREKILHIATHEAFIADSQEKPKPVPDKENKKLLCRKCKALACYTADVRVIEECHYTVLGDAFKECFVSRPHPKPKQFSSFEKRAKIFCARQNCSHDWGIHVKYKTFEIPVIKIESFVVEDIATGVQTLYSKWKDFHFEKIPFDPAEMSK

[2] = target: T2, RIG-I Q784A/R791A Q784A;R791A (Homo sapiens) (UniProt O95786); assay: fluorescence polarization; details: internal 6-carboxyfluorescein in backbone between U12 and C13 (central tetraloop bases); 25 mM MOPS pH 7.4, 150 mM KCl, 2 mM DTT, 2 mM MgCl2, 0.01% Triton X-100, 1 nM RNA, room temperature, 1 h
T2 sequence: T1 sequence with A788K

Sequence: GGACGUACGUUUCGACGUACGUCC [5'OH10L-F]
- Kd [1]: 172 nM
- Kd [2]: 91.4 nM
